Results published in patent publication US20140087995A1 (published 2014).
Numbered stars: 1 amine (or outer) side, 2 acyl side, 3 side chain; on linkers, the order of the positions; unused ones are H or OH. Bridge positions count the residues as written; N and C are the ends. Side chains are listed from the residue outwards. Ends that are not written are not given here. * marks the point of attachment. C20 diacid = O=C(O)CCCCCCCCCCCCCCCCCCC(=O)*; γGlu = O=C(O)[C@H](CCC(=O)[*:2])N[*:1]

How the values were obtained:
[1] = target: T1, human amylin receptor (amylin 3(a) receptor: human calcitonin receptor coexpressed with RAMP-3) (human, UniProt P30988 25-474; O60896 24-148); assay: SPA competition against 125I-rat amylin, membranes of BHK amylin 3(a)/CRE-luc cells (Assay V)
T1 construct: whole, on cells; the functional assay (Assay II a) on whole cells; the complex is called human; also called hAmylin-R; hAmylinR
T1 sequence (looked up) 1: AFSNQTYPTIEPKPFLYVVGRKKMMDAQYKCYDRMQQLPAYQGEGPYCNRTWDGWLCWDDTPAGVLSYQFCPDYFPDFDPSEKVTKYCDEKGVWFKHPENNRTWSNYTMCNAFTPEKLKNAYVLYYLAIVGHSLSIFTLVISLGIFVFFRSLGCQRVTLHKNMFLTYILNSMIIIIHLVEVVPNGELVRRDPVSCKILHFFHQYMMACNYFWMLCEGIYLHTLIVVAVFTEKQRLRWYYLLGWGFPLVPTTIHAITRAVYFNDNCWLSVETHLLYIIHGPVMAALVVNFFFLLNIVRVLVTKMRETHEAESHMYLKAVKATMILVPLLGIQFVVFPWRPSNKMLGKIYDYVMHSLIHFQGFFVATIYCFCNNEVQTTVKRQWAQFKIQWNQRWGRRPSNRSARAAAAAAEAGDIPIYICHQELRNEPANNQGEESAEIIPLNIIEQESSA
T1 sequence (looked up) 2: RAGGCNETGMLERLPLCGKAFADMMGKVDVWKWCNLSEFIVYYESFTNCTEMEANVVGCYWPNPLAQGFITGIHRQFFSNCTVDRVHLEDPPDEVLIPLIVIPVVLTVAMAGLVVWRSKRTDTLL
Protocol: The binding assay was performed using scintillation proximity assay (SPA) beads (RPNQ0001) from PerkinElmer and cell membranes from the Amylin 3(a)/CRE-luc cells (as described in Assay (II)) were used. Membranes were prepared in the following way; the cells were rinsed with PBS and incubated with Versene for approximately 5 min before harvesting. The cells were flushed with PBS and the cell-suspension was centrifuged for 5 min at 1000 rpm. Cells were homogenized (ultrathurrax) in a buffer containing 20 mM Na-HEPES and 10 mM EDTA (pH 7.4) and centrifuged at 20.000 rpm for 15 min. The resulting pellet was resuspended, homogenized and centrifuged (20.000 rpm, 15 min) in a buffer containing 20 mM Na-HEPES and 0.1 mM EDTA (pH 7.4, buffer 2). The resulting pellet was resuspended in buffer 2 and protein concentration was measured (BCA protein Assay, Pierce). The homogenate was kept cold during the whole procedure. The membranes were kept at −80° C. until use. The assay was performed in a 384 well Optiplate (PerkinElmer) in a total volume of 40 ul. Membranes were mixed with SPA beads. Final concentration of membranes 35 ng/μL final and SPA beads was 0.05 mg/well. Test-compounds were dissolved in DMSO and further diluted in assay buffer (50 mM Hepes, pH 7.4, 1 mM CaCl2, 5 mM MgCl₂, 0.1% OA and 0.02% Tween20). […] The final mixture was incubated with shaking at 400 rpm for 120 min at 25° C. prior to centrifugation (1500 rpm, 10 min). Samples were analyzed on TopCounter™ (Packard). The IC₅₀ was calculated using (one site binding competition analysis) GraphPad Prism5 as a measure of receptor affinity.

[2] = target: T1, human amylin receptor (amylin 3(a) …); assay: cell-based or functional assay
[3] = target: T2, human calcitonin receptor (human, UniProt P30988 25-474); assay: cell-based or functional assay
T2 sequence (looked up): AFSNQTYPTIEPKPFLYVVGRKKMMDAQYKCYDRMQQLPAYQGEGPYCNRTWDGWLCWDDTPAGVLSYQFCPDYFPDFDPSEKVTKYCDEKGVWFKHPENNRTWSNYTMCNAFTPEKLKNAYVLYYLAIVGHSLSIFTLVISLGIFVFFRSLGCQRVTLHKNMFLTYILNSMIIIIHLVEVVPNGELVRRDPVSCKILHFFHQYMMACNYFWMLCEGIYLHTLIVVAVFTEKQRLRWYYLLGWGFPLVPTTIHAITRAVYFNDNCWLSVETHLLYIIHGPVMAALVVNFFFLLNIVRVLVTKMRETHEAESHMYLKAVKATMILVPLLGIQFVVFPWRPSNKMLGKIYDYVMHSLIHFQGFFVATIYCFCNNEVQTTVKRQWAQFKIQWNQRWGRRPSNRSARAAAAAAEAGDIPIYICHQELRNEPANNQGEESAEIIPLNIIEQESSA

| Binder | IC50 [1] [nM] | hAmylin-R funct. EC50 (pM) [2] [pM] | Ratio hCT/hAmylin funct. [3] | hCTR funct. EC50 (pM) [3] [pM] |
| --- | --- | --- | --- | --- |
| K([γGlu-γGlu-C20 diacid])CNTATCATQRLAEFLRHSSPNFGAIPSSTNVGRETY-NH2 (disulfide 2-7; N-terminus assumed; SMILES CC[C@H](C)[C@H](NC(=O)[C@H](C)NC(=O)CNC(=O)[C@H](Cc1ccccc1)NC(=O)[C@H](CC(N)=O)NC(=O)[C@@H]1CCCN1C(=O)[C@H](CO)NC(=O)[C@H](CO)NC(=O)[C@H](Cc1c[nH]cn1)NC(=O)[C@H](CCCNC(=N)N)NC(=O)[C@H](CC(C)C)NC(=O)[C@H](Cc1ccccc1)NC(=O)[C@H](CCC(=O)O)NC(=O)[C@H](C)NC(=O)[C@H](CC(C)C)NC(=O)[C@H](CCCNC(=N)N)NC(=O)[C@H](CCC(N)=O)NC(=O)[C@@H](NC(=O)[C@H](C)NC(=O)[C@@H]1CSSC[C@H](NC(=O)[C@@H](N)CCCCNC(=O)CC[C@H](NC(=O)CC[C@H](NC(=O)CCCCCCCCCCCCCCCCCCC(=O)O)C(=O)O)C(=O)O)C(=O)N[C@@H](CC(N)=O)C(=O)N[C@@H]([C@@H](C)O)C(=O)N[C@@H](C)C(=O)N[C@@H]([C@@H](C)O)C(=O)N1)[C@@H](C)O)C(=O)N1CCC[C@H]1C(=O)N[C@@H](CO)C(=O)N[C@@H](CO)C(=O)N[C@H](C(=O)N[C@@H](CC(N)=O)C(=O)N[C@H](C(=O)NCC(=O)N[C@@H](CCCNC(=N)N)C(=O)N[C@@H](CCC(=O)O)C(=O)N[C@H](C(=O)N[C@@H](Cc1ccc(O)cc1)C(N)=O)[C@@H](C)O)C(C)C)[C@@H](C)O) | 0.957 | 703 | 10.6 | 7430 |
| K([γGlu-γGlu-C20 diacid])CNTATCATQRLAEFLRHSSNNPGAILSSTNVGPETY-NH2 (disulfide 2-7) | 1.19 | 5170 | 17.3 | 89600 |
| K([γGlu-γGlu-C20 diacid])CNTATCATQRLAEFLRHSSPNFGAIPSSTNVGPETY-NH2 (disulfide 2-7; N-terminus assumed; SMILES CC[C@H](C)[C@H](NC(=O)[C@H](C)NC(=O)CNC(=O)[C@H](Cc1ccccc1)NC(=O)[C@H](CC(N)=O)NC(=O)[C@@H]1CCCN1C(=O)[C@H](CO)NC(=O)[C@H](CO)NC(=O)[C@H](Cc1c[nH]cn1)NC(=O)[C@H](CCCNC(=N)N)NC(=O)[C@H](CC(C)C)NC(=O)[C@H](Cc1ccccc1)NC(=O)[C@H](CCC(=O)O)NC(=O)[C@H](C)NC(=O)[C@H](CC(C)C)NC(=O)[C@H](CCCNC(=N)N)NC(=O)[C@H](CCC(N)=O)NC(=O)[C@@H](NC(=O)[C@H](C)NC(=O)[C@@H]1CSSC[C@H](NC(=O)[C@@H](N)CCCCNC(=O)CC[C@H](NC(=O)CC[C@H](NC(=O)CCCCCCCCCCCCCCCCCCC(=O)O)C(=O)O)C(=O)O)C(=O)N[C@@H](CC(N)=O)C(=O)N[C@@H]([C@@H](C)O)C(=O)N[C@@H](C)C(=O)N[C@@H]([C@@H](C)O)C(=O)N1)[C@@H](C)O)C(=O)N1CCC[C@H]1C(=O)N[C@@H](CO)C(=O)N[C@@H](CO)C(=O)N[C@H](C(=O)N[C@@H](CC(N)=O)C(=O)N[C@H](C(=O)NCC(=O)N1CCC[C@H]1C(=O)N[C@@H](CCC(=O)O)C(=O)N[C@H](C(=O)N[C@@H](Cc1ccc(O)cc1)C(N)=O)[C@@H](C)O)C(C)C)[C@@H](C)O) | 0.121 | 225 | 10.5 | 2360 |
